Results on three substances are retold here after patent US7608586B2, “Soluble low-density lipoprotein receptor related protein binds directly to Alzheimer's amyloid-beta peptide” (The University of Rochester, priority 2003, dated 2009).

Assay [1] deals with T1, LRP-1 on isolated brain capillaries (Mus musculus, UniProt Q91ZX7).
T1 construct: from tissue; host or cells: isolated brain capillaries of wild-type and RAP null mice
The assay can be described thus: Brain capillary uptake (in vitro clearance of 125I-Aβ by isolated brain capillaries). In kind it is cell-based. Conditions: for lower affinity (Ki) for LRP-mediated clearance on brain capillaries than Aβ1-40: 125I-Aβ1-40 as test-ligand, unlabeled peptide 40 nM.

The target of assay [2] is T2, LRP-1 at the blood-brain barrier (Mus musculus, UniProt Q91ZX7).
T2 construct: from tissue; host or cells: living mouse brain (C57BL/6, RAP null and littermate controls), microinjection into brain ISF
T2 sequence (Q91ZX7 20-4545): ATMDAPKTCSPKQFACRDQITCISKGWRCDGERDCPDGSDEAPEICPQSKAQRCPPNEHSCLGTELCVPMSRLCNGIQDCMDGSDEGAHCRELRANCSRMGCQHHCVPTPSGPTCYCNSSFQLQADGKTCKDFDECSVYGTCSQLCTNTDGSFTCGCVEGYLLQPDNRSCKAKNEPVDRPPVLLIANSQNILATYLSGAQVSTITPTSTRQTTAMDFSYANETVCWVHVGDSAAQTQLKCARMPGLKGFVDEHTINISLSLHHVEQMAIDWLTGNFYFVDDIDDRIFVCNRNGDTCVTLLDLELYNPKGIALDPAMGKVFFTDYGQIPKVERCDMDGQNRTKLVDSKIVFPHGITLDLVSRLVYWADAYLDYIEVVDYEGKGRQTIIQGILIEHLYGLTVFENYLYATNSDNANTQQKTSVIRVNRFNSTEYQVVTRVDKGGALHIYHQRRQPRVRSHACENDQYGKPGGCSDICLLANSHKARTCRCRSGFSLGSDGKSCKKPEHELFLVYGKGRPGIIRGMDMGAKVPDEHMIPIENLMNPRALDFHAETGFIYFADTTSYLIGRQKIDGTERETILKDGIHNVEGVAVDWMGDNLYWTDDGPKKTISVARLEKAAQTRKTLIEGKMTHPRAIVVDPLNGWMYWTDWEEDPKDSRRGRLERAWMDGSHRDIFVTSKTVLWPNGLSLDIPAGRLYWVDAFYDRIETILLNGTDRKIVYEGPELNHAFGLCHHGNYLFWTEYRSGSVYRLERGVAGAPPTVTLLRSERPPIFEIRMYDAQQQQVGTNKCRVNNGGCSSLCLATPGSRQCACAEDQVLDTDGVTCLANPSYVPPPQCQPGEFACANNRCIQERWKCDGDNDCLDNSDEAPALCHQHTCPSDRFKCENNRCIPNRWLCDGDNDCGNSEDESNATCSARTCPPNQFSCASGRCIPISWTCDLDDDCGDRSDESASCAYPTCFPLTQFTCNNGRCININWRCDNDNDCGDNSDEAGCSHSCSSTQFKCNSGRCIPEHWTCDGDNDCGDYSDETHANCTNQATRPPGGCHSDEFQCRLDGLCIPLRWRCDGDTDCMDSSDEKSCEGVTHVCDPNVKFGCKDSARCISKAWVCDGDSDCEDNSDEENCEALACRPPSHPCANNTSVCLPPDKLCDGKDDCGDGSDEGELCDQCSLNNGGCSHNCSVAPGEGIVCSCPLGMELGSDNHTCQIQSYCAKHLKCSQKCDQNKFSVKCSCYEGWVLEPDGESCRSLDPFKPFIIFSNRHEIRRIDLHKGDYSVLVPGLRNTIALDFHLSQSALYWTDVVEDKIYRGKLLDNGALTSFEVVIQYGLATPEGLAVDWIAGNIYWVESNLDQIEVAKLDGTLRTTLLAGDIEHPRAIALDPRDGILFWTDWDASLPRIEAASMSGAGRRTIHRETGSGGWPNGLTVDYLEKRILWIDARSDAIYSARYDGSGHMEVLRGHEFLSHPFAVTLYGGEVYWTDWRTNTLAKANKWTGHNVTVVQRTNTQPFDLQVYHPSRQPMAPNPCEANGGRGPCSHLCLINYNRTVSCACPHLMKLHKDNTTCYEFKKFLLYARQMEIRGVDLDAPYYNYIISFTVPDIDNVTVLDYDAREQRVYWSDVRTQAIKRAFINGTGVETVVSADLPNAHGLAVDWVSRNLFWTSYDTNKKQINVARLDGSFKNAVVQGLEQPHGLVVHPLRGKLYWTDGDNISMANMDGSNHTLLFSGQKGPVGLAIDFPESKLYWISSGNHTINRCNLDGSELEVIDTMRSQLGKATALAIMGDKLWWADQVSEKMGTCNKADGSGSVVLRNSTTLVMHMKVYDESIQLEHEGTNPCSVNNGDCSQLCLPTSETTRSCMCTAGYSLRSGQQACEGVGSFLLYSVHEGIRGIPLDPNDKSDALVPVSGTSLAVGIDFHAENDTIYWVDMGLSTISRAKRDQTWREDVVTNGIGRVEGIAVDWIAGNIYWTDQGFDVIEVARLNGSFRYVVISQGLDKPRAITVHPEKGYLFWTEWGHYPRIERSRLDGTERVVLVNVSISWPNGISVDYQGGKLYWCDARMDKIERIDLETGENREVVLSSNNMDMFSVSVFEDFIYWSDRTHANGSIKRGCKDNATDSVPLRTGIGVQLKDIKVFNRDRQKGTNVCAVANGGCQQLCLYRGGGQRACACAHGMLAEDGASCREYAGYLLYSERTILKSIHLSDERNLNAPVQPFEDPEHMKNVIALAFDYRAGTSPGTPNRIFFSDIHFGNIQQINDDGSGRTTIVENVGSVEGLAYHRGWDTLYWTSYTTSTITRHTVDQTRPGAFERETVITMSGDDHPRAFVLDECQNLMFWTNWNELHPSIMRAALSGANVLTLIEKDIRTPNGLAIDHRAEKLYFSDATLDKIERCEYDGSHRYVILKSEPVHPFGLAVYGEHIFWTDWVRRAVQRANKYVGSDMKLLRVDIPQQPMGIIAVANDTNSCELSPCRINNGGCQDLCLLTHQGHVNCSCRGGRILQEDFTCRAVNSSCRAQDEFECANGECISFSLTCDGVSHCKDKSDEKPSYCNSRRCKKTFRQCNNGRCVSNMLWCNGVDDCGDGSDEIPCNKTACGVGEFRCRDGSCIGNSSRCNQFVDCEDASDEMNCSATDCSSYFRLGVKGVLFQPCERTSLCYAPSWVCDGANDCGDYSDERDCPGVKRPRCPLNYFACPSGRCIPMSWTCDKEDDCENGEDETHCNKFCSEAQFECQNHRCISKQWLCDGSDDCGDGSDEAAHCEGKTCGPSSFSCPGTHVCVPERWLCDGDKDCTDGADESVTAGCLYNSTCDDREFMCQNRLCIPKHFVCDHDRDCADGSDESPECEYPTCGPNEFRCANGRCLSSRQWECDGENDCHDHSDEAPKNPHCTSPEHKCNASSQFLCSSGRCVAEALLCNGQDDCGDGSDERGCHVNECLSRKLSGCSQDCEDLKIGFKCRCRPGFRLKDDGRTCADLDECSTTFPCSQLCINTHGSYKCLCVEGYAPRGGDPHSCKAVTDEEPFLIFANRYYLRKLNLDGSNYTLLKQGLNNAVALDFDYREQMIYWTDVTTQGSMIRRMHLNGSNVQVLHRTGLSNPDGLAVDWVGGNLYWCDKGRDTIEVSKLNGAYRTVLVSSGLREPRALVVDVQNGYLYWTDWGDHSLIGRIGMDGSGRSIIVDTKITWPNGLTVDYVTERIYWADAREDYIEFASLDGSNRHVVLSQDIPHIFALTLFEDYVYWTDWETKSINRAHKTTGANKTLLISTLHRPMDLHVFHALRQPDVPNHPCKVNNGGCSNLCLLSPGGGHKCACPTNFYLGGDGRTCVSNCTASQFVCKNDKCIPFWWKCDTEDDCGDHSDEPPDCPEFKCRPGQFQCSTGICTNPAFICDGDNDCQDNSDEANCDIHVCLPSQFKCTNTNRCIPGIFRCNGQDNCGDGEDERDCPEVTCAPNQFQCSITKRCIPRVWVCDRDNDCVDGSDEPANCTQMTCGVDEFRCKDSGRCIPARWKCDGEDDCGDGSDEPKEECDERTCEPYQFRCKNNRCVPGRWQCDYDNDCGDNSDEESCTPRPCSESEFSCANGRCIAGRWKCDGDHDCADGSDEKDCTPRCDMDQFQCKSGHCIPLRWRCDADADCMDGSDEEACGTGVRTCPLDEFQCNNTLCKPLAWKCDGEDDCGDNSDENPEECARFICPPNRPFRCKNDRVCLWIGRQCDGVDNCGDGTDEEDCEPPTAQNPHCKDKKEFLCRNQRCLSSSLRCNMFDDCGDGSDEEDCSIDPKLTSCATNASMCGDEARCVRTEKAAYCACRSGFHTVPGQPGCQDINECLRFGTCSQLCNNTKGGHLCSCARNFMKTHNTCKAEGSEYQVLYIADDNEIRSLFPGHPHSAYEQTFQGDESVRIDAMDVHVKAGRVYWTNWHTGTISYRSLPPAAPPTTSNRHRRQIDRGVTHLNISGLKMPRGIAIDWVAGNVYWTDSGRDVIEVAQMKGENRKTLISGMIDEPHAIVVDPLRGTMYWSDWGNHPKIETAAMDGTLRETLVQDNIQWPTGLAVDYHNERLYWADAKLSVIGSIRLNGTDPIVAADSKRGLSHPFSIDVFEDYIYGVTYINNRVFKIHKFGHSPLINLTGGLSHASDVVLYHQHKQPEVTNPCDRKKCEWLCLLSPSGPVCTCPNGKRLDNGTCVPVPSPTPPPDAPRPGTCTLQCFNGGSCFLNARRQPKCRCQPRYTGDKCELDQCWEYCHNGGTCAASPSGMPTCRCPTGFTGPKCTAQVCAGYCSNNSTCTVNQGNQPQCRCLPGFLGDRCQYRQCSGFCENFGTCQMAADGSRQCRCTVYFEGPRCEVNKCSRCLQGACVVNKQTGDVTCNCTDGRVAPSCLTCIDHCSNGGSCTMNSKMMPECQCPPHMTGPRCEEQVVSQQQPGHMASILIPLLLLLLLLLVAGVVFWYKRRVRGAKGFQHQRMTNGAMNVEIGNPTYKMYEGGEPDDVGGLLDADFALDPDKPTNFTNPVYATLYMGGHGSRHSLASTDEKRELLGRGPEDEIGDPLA
Kind of assay: Brain clearance studies: efflux of 125I-Aβ from brain ISF across the blood-brain barrier. In kind it is in vivo. Conditions: RAP 1 μM, αLRP-1 60 μg/ml, NI IgG 60 μg/ml, 30 min.
Experimental: All studies were performed according to National Institutes of Health guidelines using an approved institutional protocol. […] Briefly a stainless steel guide cannula was implanted stereotaxically into the right caudate-putamen of anesthetized mice (0.5 mg/kg ketamine and 5 mg/kg xylazine I.P.). Coordinates for tip of the cannula were 0.9 mm anterior and 1.9 mm lateral to the bregma and 2.9 mm below the surface of the brain. Animals were allowed to recover after surgery prior to radiotracer studies. […] When the effects of the different unlabeled molecular reagents were tested, they were injected simultaneously with radiolabled ligands. […] Brain and blood were sampled 30 min after tracers injection and prepared for radioactivity analysis by TCA, HPLC and SDS-PAGE/immunoprecipitation analysis to determine the molecular forms of test-tracers. […] For SDS-PAGE analysis, TCA precipitated samples were resuspended in 1% SDS, vortexed and incubated at 55° C. for 5 min, then neutralized, boiled for 3 min, homogenized, and analyzed by electrophoresis in 10% Tris-Tricine gels followed by fluorography.
The percentage of Aβ cleared through the BBB was calculated as [(1−Nb(Aβ)/Ni(Aβ))−(1−Nb(inulin)/Ni(inulin))]×100, using a standard time of 30 min (3). […]

A further assay concerns the target T3, LRP-1 cluster IV (Homo sapiens, UniProt Q07954).
T3 construct: cluster IV (i.e., His3313 to Leu3759 as numbered in Herz et al., 1988); made in house; host or cells: stably transfected baby hamster kidney (BHK) cells
The assay can be described thus: Surface plasmon resonance binding of Aβ peptides to immobilized LRP-1 cluster IV. Conditions: RAP 500 nM. On the procedure: (§1) RAP was used at 500 nM. Ligand solution was replaced with buffer to initiate dissociation. […] Apparent affinity constants Kd(app) were inferred from the ratio koff(app)/kon(app). Data are based on three to five measurements using six to nine different concentrations for each measurement. Data are presented as the mean±SEM. Analysis was performed using BIACORE X biosensor system (Uppsala, Sweden) and BIA evaluation 3.0 software (Biocore, Sweden).

Another assay has as its target T4, LRP-1 cluster II (Homo sapiens, UniProt Q07954).
T4 construct: cluster II (i.e., Arg786 to Leu1165 as numbered in Herz et al., 1988); made in house; host or cells: stably transfected baby hamster kidney (BHK) cells
T4 sequence (Q07954 786-1165): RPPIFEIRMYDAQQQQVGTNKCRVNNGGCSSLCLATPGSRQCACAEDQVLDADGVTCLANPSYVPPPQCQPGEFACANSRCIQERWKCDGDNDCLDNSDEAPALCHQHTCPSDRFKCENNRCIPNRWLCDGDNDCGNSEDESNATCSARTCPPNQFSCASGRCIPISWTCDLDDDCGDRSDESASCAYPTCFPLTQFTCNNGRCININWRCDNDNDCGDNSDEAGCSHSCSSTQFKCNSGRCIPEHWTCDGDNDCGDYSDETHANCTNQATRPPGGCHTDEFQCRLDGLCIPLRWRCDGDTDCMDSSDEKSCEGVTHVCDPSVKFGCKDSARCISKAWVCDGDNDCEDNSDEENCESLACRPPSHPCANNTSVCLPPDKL
The assay can be described thus: Surface plasmon resonance binding of Aβ peptides to immobilized LRP-1 cluster II. Conditions: RAP 500 nM. On the procedure: as §1
A general note: In SPR one partner is held on a chip, and binding of the other changes the refractive index at the surface.

Entries after “also recorded” stand apart in the source; their conditions may differ.

T1 sequence (Q91ZX7 20-4545): as the sequence (Q91ZX7 20-4545) above
T3 sequence (Q07954 3313-3759): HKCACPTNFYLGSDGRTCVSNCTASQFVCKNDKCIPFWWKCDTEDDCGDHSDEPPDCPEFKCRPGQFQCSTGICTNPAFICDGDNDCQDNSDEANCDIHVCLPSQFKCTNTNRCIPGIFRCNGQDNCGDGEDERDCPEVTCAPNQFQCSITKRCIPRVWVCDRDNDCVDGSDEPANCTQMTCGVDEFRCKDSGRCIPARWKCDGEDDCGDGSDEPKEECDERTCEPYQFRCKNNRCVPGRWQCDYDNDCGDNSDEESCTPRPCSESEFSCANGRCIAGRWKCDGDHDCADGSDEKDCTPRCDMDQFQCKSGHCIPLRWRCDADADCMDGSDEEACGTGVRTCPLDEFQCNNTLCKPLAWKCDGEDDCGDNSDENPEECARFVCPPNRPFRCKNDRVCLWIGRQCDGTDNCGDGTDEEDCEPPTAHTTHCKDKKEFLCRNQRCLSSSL

Consider “Dutch Aβ1-40: Dutch (E22Q) mutant Aβ1-40 peptide”, for which, in assay [1], the “lower affinity (Ki) for LRP-mediated clearance on brain capillaries than Aβ1-40” value was determined as 6 fold.
In the case of “RAP: human recombinant receptor-associated protein, an LRP-1 antagonist”, the “effect on Aβ elimination from brain” value in assay [2] is on record as “almost completely abolished”. In assay [1] (Aβ1-40 at 120 nM, RAP 1 μM, αLRP-1 60 μg/ml, NI IgG 60 μg/ml), the “effect on Aβ1-40 brain capillary uptake” value was “completely inhibited; also recorded: abolished”. Also, the “effect on 125I-Aβ1-40 uptake before (total) and after mild acid wash” value in assay [1] (RAP 500 nM, 37° C.) is reported as “blocked”. The “Binding of Aβ peptides to LRP-1 cluster IV in the presence of RAP” value with LRP-1 cluster IV is listed as “abolished”. In addition, the “Binding of Aβ peptides to LRP-1 cluster II in the presence of RAP” value in the assay with LRP-1 cluster II is “abolished”.
With “Dutch Aβ1-42: Dutch (E22Q) mutant Aβ1-42 peptide”, in assay [1], the “lower affinity (Ki) for LRP-mediated clearance on brain capillaries than Aβ1-40” value is on record as 18 fold.
